Among the data in publication PMC5624674 are fold increase in lacZ expression values, retold here.

This experiment addresses T1, λCI-CbtA fusion protein (wild-type CbtA toxin of E. coli) (E. coli), P64524.
T1 chain: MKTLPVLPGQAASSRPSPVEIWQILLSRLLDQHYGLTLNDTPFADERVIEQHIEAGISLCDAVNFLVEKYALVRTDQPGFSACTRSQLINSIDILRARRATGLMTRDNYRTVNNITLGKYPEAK
Nature of the experiment: two-hybrid. The settings on record: remark: other sources report otherwise.

B1: α-MreB fusion protein (wild-type E. coli MreB), P0A9X4 1-347 (natural protein)
chain: MLKKFRGMFSNDLSIDLGTANTLIYVKGQGIVLNEPSVVAIRQDRAGSPKSVAAVGHDAKQMLGRTPGNIAAIRPMKDGVIADFFVTEKMLQHFIKQVHSNSFMRPSPRVLVCVPVGATQVERRAIRESAQGAGAREVFLIEEPMAAAIGAGLPVSEATGSMVVDIGGGTTEVAVISLNGVVYSSSVRIGGDRFDEAIINYVRRNYGSLIGEATAERIKHEIGSAYPGDEVREIEVRGRNLAEGVPRGFTLNSNEILEALQEPLTGIVSAVMVALEQCPPELASDISERGMVLTGGGALLRNLDRLLMEETGIPVVVAEDPLTCVARGGGKALEMIDMHGGDLFSEE
B1 registered a fold increase in lacZ expression of 3 fold.
